Paper PMC9834230, “The HAPSTR2 retrogene buffers stress signaling and resilience in mammals” (Nature Communications, 2023)

Biological target: the molecule itself
Experiment: SEC; analytical; 500 µg protein on Superdex 200 Increase 10/300 GL in PBS with 1 mM DTT, 0.3 mL/minute, 4 °C; stoichiometry estimated against standards

B1: recombinant maltose-binding protein (MBP)-tagged HAPSTR2 (natural protein, human, UniProt A0A7P0TBJ1 1-273, looked up)
chain: MEEQQKEGEAEVAEHWFSKWERQCLAEAEQEEQLPPELQEEAAAELAGLKSEKQKLWHLFQISATAVAQLYKDSGCQQQGLSMWDPFQNAAMAVTSLYKESGDAHQRSFDLGVQVGHQRRIKDVLEWVKKGRSTIRREDLISFLCGKVPPAPPPPRTPRTPPKPPTGVTSQAVATESSSSVDVDLQPFQEAIALHGLSGAMAGISMRSGDSPQDSGVASSGRRKTSFLEDDLNPFDSEELALHLDSGGIRKRTSAQCSDGITDSPIQKRNRMV
notes: HAPSTR2, human; Vector pDest-HisMBP (Addgene 11085); No cleavage of the tags is described; Homo-oligomer by SEC; also called MBP-HAPSTR2; H2; source: E. coli BL21 (DE3), purified (Ni-NTA, dialysis); not shown: MBP, N-terminal, kept
binding result: binds
